Experimental findings from patent US12709641B2, “Tau binding compounds” (VOYAGER THERAPEUTICS, INC., dated 2026) are described below.

T1: peptides corresponding with residues 413-430 of human tau (human, also: biotin, position not given here, phosphorylated residues, sites not given here)
T1 peptide: STGSIDMVDSPQLATLAD

B1: V0020 (antibody, V domains shown)
VH: QVQLQQPGTDLVKPGASVKLSCKASGYTFTSYWMHWLKQRPGQGLEWIGNINPNNSDANYNEKFKSKATLTVDKSSSAAYMQLISLTSEDSAVYYCARANYYGGSQFAYWGQGTLVTVSA
VL: DVVVTQTPLSLPVSLGDQASISCRSSQSLVHSNGKTYLHWYLQKPGQSPNLLIYKVSNRFSGVPDRFSGSGSGTDFTLKISRVEAEDLGVYFCSQSTHVPFTFGSGTKLEIK
B2: V0021 (antibody, V domains shown)
VH: B1 VH with T9I, D10E, P14T, Y32N, D57E, A58T, K65R, S66K
VL: B1 VL with V4M, P12C
B3: V0022 (antibody, V domains shown)
VH: QVQLQQPGTELVKPGSSVNLSCKASGFTFTRYWMHWVKERPGHGLEWIGNINPNNGGTDFNEKFKNKATLTVHKSSTTVFIQLSSLTSEDSAVYYCARGTGTGAMDYWGQGTSVTVSS
VL: DVVMTQTPLSLPVSLGDQASISCRSSQSLVHNNGITYLYWYLQKPGQSPKLLIYRVSNRFSGVPDRFGGSGSGTDFTLKISRVEAEDLGVYFCFQGTHVPRTFGGGTKLEIK
B4: V0050 (antibody, V domains shown)
VH: EVQLQQSGPELVKPGASVKIPCRASGYTFTDYNMDWVKQSHGKTLEWIGDINPNNGGTIYNQKFKGKATLTVDKSSSTAYMELRSLTSEDTAVYYCARGRGMGYYALDYWGQGTSVTVSS
VL: DIQMTQSPASLSASVGETVTFTCGASENVYGALNWYQRKQGKSPQLLIYGATNLADGMSSRFSGSGSGRQYSLKISSLHPDDVATYYCQNVLTIPWTFGGGAKLEIK
B5: V0004 (antibody, V domains shown)
VH: QVQLQQPGAELVKPGASVKLSCKASDYTFTNYWMHWVKQRPGRGLEWIGRIDPNSGGTRYNEKFKNKATLTVDKPSSTAYMHLSSLTSEDSAVYYCAGDFDVWGTGTTVTVSS
VL: DIQMTQSPASLSASVGETVTITCRASGNIHNYLAWYQQRQGKSPQLLVYNAKTLPDGVPSRFSGSGSGTQYSLKINSLQPEDFGSYCCQHFWSTPLTFGAGTKLELK
B6: V0026 (antibody, V domains shown)
VH: QVQLQQSGPELVKPGASVKISCKASGYSFTDYYINWVKQRPGQGLEWIGWIFPGSDSTYYNEKFKGKATLTVDKSSSTASMLLSSLTSEDSAVYFCARPTVVARDYAMDYWGQGTSVTVSS
VL: DVLMTQTPLSLPVSLGDQASISCRSSQSIVYSNGNTYLEWYLQKPGQSPKLLIYKVSNRFSGVPDRFSGSGSGTDFTLKISRVEAEDLGVYYCFQGSHVPYTFGGGTKLEIK
B7: V0032 (antibody, V domains shown)
VH: QVQLKQSGAELVRPGASVKLSCKTSGYTFTDYYIKWVKQRPGQGLEWIARIYPGSGNTYYNEKFKGKATLTAEKSSSTAYMQLSSLTSEDSAVYFCARPAYYSKDYAMEYWGQGTSVTVSS
VL: B6 VL with S32T
B8: V0031 (antibody, V domains shown)
VH: QVQLQQPGTELVKPGASVKLSCKASGYTFTSYWMHWVKQRPGQGLEWIGNIYPSNGGTYYNEKFKSKATLTVDKSSSTAYMQLSSLTSEDSAVYYCARSSVVGRDYAMDYWGQGTSVTVSS
VL: B6 VL with S22A, Y31H, K50E
B9: V0027 (antibody, V domains shown)
VH: B6 VH with S28T, D31E, I34L, V37M, S55R, D56G, Y59N, S80Y, V101I
VL: B6 VL with Y31H, S32R, Y101F, G105S
B10: V0009 (antibody, V domains shown)
VH: EVQLVESGGALVQPGGSLSLSCAASGFTFTDYYMSWVRQPPGKALEWLALIRNKAKGFTTEYSASVKGRFTISRDNSQSILLFQMNDLRADDSATYYCVRDINYWGQGTTLTVSS
VL: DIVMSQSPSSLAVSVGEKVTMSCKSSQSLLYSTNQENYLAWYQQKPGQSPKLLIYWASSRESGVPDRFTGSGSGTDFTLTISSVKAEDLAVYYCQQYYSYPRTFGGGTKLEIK
B11: V0058 (antibody, V domains shown)
VH: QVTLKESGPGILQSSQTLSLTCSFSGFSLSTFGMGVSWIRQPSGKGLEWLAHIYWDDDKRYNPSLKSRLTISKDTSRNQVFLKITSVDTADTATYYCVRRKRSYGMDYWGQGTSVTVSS
VL: DIVMTQSPSSLSVSAGEKVTMSCKSSQSLLSSGNQKNYLAWYQQKPGQPPKLLIYGASTRESGVPDRFTGSGSGTDFTLTISSVQAEDLAVYYCQNDHSHPYTFGGGTKLEIK
B12: V0054 (antibody, V domains shown)
VH: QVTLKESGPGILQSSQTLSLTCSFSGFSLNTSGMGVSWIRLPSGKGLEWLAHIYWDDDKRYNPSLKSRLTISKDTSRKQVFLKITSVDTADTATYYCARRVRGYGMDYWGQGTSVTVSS
VL: B11 VL with S31N, A57T
B13: V0057 (antibody, V domains shown)
VH: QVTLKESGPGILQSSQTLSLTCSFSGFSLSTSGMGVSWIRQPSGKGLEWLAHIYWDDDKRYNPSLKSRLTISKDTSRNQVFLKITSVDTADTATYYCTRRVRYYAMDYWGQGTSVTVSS
VL: B11 VL with S31N
B14: V0055 (antibody, V domains shown)
VH: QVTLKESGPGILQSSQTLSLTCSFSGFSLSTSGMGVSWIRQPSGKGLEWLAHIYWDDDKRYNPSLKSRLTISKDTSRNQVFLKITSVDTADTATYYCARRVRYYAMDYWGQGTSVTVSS
VL: B11 VL with S31N
B15: V0024 (antibody, V domains shown)
VH: QVQLQQPGTELVKPGASVKLSCKASGYTFTRFWMHWVKQRPGQGLEWIGNINPNNGGTDNNERFKSKATLTVDRSSSTAYMQLSSLTSEDSAVYYCARGTGTGAMDYWGQGTSVTVSS
VL: B3 VL with N32S, I35N, Y37H, N58S, G68S
B16: V00018 (antibody, V domains shown)
VH: QVQLQQPGADLVRPGSSVKLSCKASGYTFTRSWMHWVKQRPIEGLEWIGNIDPSDSEAHYNQKFKDKATLTVDKFSNTAYMQLSSLTSEDSAVYYCARWDDFYVAYWGQGTLVTVSA
VL: DIVLTQSPASLAVSLGQRATISCRASKSVSTSGYSYIHWYQQKPGQPPKLLIYLASNLESGVPARFSGSGSGTDFTLNIHPVEEEDAATYYCQHSRELPWTFGGGTKLEIK
B17: V0035 (antibody, V domains shown)
VH: EAQLQQSGAELVRPGSSVKMSCKTSGYTFTSYGINWVKQRPGQGLEWIGYIYIRNGNTAYNEKFKGKATVTSDTSSSTVYMQLSSLTSEDSAIYFCAGTGTSFTYWGQGTLVTVSA
VL: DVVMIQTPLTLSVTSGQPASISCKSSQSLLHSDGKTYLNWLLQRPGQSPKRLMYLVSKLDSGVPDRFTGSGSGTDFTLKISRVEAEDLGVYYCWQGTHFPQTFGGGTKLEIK
B18: V0034 (antibody, V domains shown)
VH: B17 VH with A2V, I48V, N55D, T104A
VL: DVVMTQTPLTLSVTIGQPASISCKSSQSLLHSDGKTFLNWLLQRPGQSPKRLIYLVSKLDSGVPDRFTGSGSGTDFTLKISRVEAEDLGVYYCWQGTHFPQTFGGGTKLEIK
B19: V0033 (antibody, V domains shown)
VH: EVQLQQSGAELVRPGSSVKMSCKTSGYTFTSYGINWVKQRPGQGLEWIGYIYIGNGHTEYNEKFEGKATLTSDTSSSTAYMQLSSLTSEDSAIYFCAGTGTLFDYWGQGTTLTVSS
VL: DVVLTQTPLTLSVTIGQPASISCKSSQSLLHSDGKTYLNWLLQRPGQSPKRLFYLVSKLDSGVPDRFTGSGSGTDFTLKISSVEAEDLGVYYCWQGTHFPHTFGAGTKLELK
B20: V00019 (antibody, V domains shown)
VH: B16 VH with D10A, R31S, E43Q, S56G, A58T, F75S, F102Y
VL: B16 VL with I37M, Q93L
B21: V00016 (antibody, V domains shown)
VH: EVQLQQSGAELVKPGASVKLSCTASGFNIKDYYIHWVKQRTEQGLEWIGRIDPEDGETKYAPKFQGKATIAADTSSNTAYLHLNSLTSEDTAVYYCAREFSYAMDYWGQGTSVTVSS
VL: NIMMTQSPSSLAVSAGEKVTMSCKSSQSVLYSSNQKNYLAWYQQKPGQSPKLLIYWASTRESGVPDRFTGSGSGTDFTLTISSVQAEDLAVYYCHQYLSSRTFGGGTKLEIK

Substitutions are numbered along the chain they refer to. No end group written: not given here.

The target of one assay is iPHF (Homo sapiens (Human), UniProt P10636-8). Nature of the assay: Octet, antibody on biosensor tips. On the procedure: Anti-human tau antibodies were assessed for affinity for iPHF by Octet (ForteBio, Menlo Park, CA) analysis. Recombinant mouse IgG antibodies were prepared with clone-specific variable domain pairs selected from those presented in Table 3 and mouse IgG1 constant domains. Candidate antibodies were immobilized on biosensor tips (ForteBio) in kinetic buffer (ForteBio). Biosensor tips were then washed before introduction of a solution of iPHF in kinetic buffer for analysis of association and dissociation with candidate antibodies. Affinity measurements (K_D) were obtained using Data Analysis HT version 11.1 and corrected for background and high-frequency noise.
For orientation: Kd means the equilibrium constant for the complex coming apart. A lower Kd goes with tighter binding. B1 displayed a Kd of 32.7 nM. In other words, the double-digit nanomolar range. For B2, the affinity, expressed as Kd, was 15.1 nM.

B3 yielded a Kd of 0.3 nM. This Kd is about 50-fold lower than that of the molecule before. Same read-out and setting: the same measure for B4: 0.4 nM; for B5: 20 nM. The molecule B6 gave a Kd of 0.7 nM. Compared with the last molecule, the Kd is about 29-fold lower. B7 registered a Kd of 17.5 nM. This Kd lies about 25-fold higher than the previous one. On the same count and under the same terms, the same measure for B8: 57.7 nM; for B9: 10.5 nM. With B10, the Kd turned out to be 0.2 nM. Same read-out and setting: the same measure for B11: 1 nM; for B12: 105 nM. In the case of B13, binding was characterised by a dissociation constant (Kd) of 17.4 nM.

B14 came in with a Kd of 1.3 nM.

In the next assay the target is T2, enriched paired helical filament tau protein (ePHF) (human, phosphorylated residues of pathological tau, sites not stated). As to the kind of experiment: follow up analysis, method not stated.
Take B3: the “selectivity for ePHF over wild type tau” value was over 100 fold. Take B5: the “selectivity for ePHF over wild type tau” value worked out at 100 fold. For B10, the “selectivity for ePHF over wild type tau” value is over 100 fold.

For the next assay, the target named is T1, peptides corresponding with residues …. Nature of the assay: Pepscan biotinylated peptides, BLI or colorimetric detection. On the procedure:
Recombinant mouse IgG antibodies were prepared with clone-specific variable domain pairs selected from those presented in Table 3 and mouse IgG1 constant domains. Epitope analysis was carried out with different anti-tau antibodies using a peptide scanning approach (e.g., see Verelst, J. et al. Front Mol Biosci. 2020 Mar. 31; 7:48). Libraries of overlapping synthetic biotinylated peptides corresponding to phosphorylated human tau (Pepscan, Lelystad, NL) were obtained and used to coat assay plate wells, each with individual library members. Recombinant mouse IgG antibodies were prepared with clone-specific variable domain pairs selected from those presented in Table 3 and mouse IgG1 constant domains. Antibody binding to peptides in each well was analyzed using colorimetric detection of peptide-antibody complexes with labeled secondary antibody or by associating biotinylated peptides with streptavidin coated biosensors in assay wells and assessing antibody binding by bio-layer interferometry (BLI)-based detection.
In the case of B3, binding was put at a Kd of 0.306 nM. This lies in the sub-nanomolar range. B15 yielded a Kd of 0.225 nM.

A further assay deals with T2, enriched paired helical filament tau …. Nature of the assay: direct ELISA. On the procedure: (§1) Variable domain nucleic acid sequences from antibodies obtained from immunizations described above were used to prepare recombinant mouse IgG antibodies. These candidate antibodies were analyzed for binding to ePHF and specificity for ePHF over wild type tau by direct ELISA.
(§2) For direct ePHF and wildtype tau ELISA, plates were first coated with ePHF or wild type tau. Antigen solutions were prepared in PBS and 50 μL were pipetted into each well. Plates were covered and incubated for one hour at 37° C. or overnight at 4° C. Plates were then washed and blocked by addition of 150 μl of blocking buffer to each well and incubated one hour at room temperature. Plates were then washed before addition of serially diluted candidate antibody samples prepared in blocking buffer. Detection of candidate antibody binding was carried out by washing plates and adding a solution of enzyme-labeled secondary antibody in blocking buffer to each well. Secondary antibody binding was detected by addition of substrate and spectrophotometric analysis of resulting reaction product.
On the technique in general: In an ELISA, binding on a coated surface is turned into a signal by an enzyme label.
One may read the EC50 as the concentration at which the effect is half-maximal. A high value points to lower potency in that assay. For the molecule B1, the EC50 was 0.351 nM. This counts as sub-nanomolar. Molecule B2 gave an EC50 of 0.571 nM.

B3 gave an EC50 of 0.07 nM.

On to B4, for which the EC50 stood at 17.9 nM. The molecule B16 had an EC50 of 0.718 nM. Turning to B5, a half-maximal response (EC50) required 0.083 nM.

B6 yielded an EC50 of 5.61 nM. With B7, the EC50 is 14.3 nM. Compared with the last molecule, the EC50 is about 2.5-fold higher.

B8: the EC50 came to 8.8 nM. Regarding B9, a half-maximal response (EC50) required 3.51 nM.

As to B10, the EC50 is 0.038 nM. For the molecule B11, the EC50 came to 2.45 nM. Molecule B17 had an EC50 of 0.315 nM. Compared with the last molecule, the EC50 is about 7.8-fold lower. In turn, B18 returned an EC50 of 0.351 nM.

A further assay deals with wild type tau (Homo sapiens (Human), UniProt P10636-8). Nature of the assay: direct ELISA. The procedure:
as §1, §2
B19 displayed an EC50 of 0.342 nM. In other words, the sub-nanomolar range. B16 yielded an EC50 of 0.238 nM. This EC50 and that of the molecule before are within 1.5-fold of each other.

B20 gave an EC50 of 0.285 nM.

As for B21, the EC50 was 0.141 nM. Take B17: a half-maximal response (EC50) required 0.169 nM.

Take B18: a half-maximal response (EC50) required 0.14 nM. The EC50 values of the last two molecules are within 1.5-fold of each other.
